Values quoted from earlier work, collected in publication PMC5057102.

Molecular target: Amyloid beta oligomers (1-40/1-42, form not specified) (UniProt P05067)
Assay: not stated (cited)
Settings: 5'-HS (thiol); 0.1 M phosphate buffer (Na2HPO4/NaH2PO4) pH 7.4; incubations at 37 C (Abeta 60 min, aptamer-Au-Th 3 h); 1% BSA block

Chain of Amyloid beta oligomers (1-40/1-42, form not specified) (P05067 672-711): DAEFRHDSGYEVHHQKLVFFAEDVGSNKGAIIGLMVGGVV

Sequence: GCCTGTGTTGGGGCGGGTGCG [Abeta oligomer aptamer (thiolated, on AuNP with thionine)]
- Kd: 0.025 µM
